From patent publication US12564609B2, “Hematopoietic stem cell engraftment with a combination of agents” (The Board of Trustees of the Leland Stanford Junior …, priority 2020, dated 2026)

B1: SCF: recombinant murine stem cell factor (PeproTech), ligand of CD117 (protein, UniProt P20826 26-190, looked up)
Soluble KIT ligand: KEICGNPVTDNVKDITKLVANLPNDYMITLNYVAGMDVLPSHCWLRDMVIQLSLSLTTLLDKFSNISEGLSNYSIIDKLGKIVDDLVLCMEENAPKNIKESPKRPETRSFTPEEFFSIFNRSIDAFKDFMVASDTSDCVLSSTLGPEKDSRVSVTKPFMLPPVAA
B2: JSP191: anti-human CD117 mAb, humanized form of SR1, aglycosylated IgG1 (antibody, chains of the INN, looked up, V domains shown)
VH: QVQLVQSGAEVKKPGASVKVSCKASGYTFTSYNMHWVRQAPGQGLEWMGVIYSGNGDTSYNQKFKGRVTITADKSTSTAYMELSSLRSEDTAVYYCARERDTRFGNWGQGTLVTVSS
VL: DIVMTQSPDSLAVSLGERATINCRASESVDIYGNSFMHWYQQKPGQPPKLLIYLASNLESGVPDRFSGSGSGTDFTLTISSLQAEDVAVYYCQQNNEDPYTFGGGTKVEIK

Columns and labels:
[1] = system: hematopoietic stem and progenitor cells; assay: In vivo HSC depletion by anti-CD117 mAb in combination with AZA; set-up: species or system C57BL/6 mice; details: 1 μg exogenous murine SCF for 5 days in mice treated with ACK2 and AZA, day 11
Method: A. Schematic of treatment protocol. C57BL/6 mice were injected retroorbital with single dose of ACK2 500 μg 5 days prior start treatment with AZA. AZA was administered in dose 5 mg/kg/d daily for 5 days. Mice were sacrificed 6, 10, 17 and 20 days after first dose of AZA and bone marrow (BM) and spleens were harvested and analyzed for HSC-depletion and depletion of mature myeloid and lymphoid cells. […] Magnification 100 μm. C. Absolute numbers of the different HSPC compartments in the BM and spleen of untreated controls and mice treated with ACK2 in combination with AZA at 6, 10, 17 20 days after start AZA as measured by flow cytometry; Lin^−Sca1^+c-Kit^+(LSK)CD150+CD48^− (LT-HSC), LSKCD150^−CD48^− (ST-HSC), LSKCD150^+CD48^+ (MPP2), LSKCD150^−CD48^+ (MPP3/4). Data represent mean±SD (n=3-4 per group per timepoint). Statistics were calculated Mann-Whitney test (*P<0.05). […] ACK2 and 2B8 were administered as a single dose of 500 μg retroorbital 5 days prior treatment with AZA; AZA was given at dose 5 mg/kg/d for 5 days. BM was analyzed at d6, d10 and d20 after the start of AZA. […] Statistics were calculated by Kruskal-Wallis test (*P<0.05, ***P<0.001). […] Mice were sacrificed at day 11 after first dose of AZA and BM and spleen were analyzed for HSC-depletion. […] Statistics were calculated by Mann-Whitney test (*P<0.05, ns=non-significant). […]

CD117 = biological target: T1, CD117 (Homo sapiens, UniProt P10721); details: children with SCID, single agent conditioning prior to allogeneic HCT; cited from earlier work
T1 construct: JSP191, used as single agent conditioning prior to allogeneic HCT in children with SCID; endogenous in cells; host or cells: hematopoietic stem and progenitor cells of human SCID patients (in vivo, clinical trial)

human MDS HSC = details: MDS-xenografted mice; cited from earlier work
HSC = details: non-human primates; cited from earlier work

T1 sequence (P10721 26-976): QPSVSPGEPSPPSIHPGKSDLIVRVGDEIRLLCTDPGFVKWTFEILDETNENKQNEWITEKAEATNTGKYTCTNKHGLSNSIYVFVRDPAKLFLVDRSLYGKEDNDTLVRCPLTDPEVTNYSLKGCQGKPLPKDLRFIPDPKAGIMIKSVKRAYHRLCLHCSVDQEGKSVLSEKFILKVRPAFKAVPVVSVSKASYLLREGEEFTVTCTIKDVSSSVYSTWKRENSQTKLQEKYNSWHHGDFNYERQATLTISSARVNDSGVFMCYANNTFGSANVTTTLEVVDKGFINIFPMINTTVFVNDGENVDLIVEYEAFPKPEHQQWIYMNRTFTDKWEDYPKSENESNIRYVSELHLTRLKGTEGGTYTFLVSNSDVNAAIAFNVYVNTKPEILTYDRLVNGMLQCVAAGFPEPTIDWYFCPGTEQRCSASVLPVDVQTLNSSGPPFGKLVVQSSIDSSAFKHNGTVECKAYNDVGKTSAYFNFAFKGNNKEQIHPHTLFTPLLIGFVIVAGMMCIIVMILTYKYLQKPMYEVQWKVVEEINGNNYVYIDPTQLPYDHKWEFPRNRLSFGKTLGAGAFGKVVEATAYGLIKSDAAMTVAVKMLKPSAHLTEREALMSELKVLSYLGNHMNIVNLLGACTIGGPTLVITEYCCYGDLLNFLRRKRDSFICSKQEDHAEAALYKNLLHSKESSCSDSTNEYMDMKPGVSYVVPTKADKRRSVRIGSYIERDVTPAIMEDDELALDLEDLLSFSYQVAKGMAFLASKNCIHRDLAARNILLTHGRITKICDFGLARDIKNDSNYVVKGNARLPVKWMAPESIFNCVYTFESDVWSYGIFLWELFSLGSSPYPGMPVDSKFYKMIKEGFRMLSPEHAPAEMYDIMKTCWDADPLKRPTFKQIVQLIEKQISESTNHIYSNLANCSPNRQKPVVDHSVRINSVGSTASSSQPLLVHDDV

Molecule | ST-HSC, MPP2 and MPP3/4 in the bone marrow [1] | recovery of LT-HSC in the bone marrow [1] | long-term HSC engraftment (CD117) | tolerability (CD117) | depletion of human MDS HSC (human MDS HSC) | HSC elimination and off-target toxicity (HSC)
B1 | no changes | faster recovery of LT-HSC | – | – | – | –
B2 | – | – | all showed evidence of long-term HSC engraftment | tolerated JSP191 well, without safety issues | depletes human MDS HSC | can eliminate HSC with little to no off-target toxicity
